B1: 32C9F4 (2-2) (antibody, IgG4, V domains shown)
VH: QVQLQQPGAELVKPGASVKLSCKASGYTFTSYWMHWVKQRPGQGLEWIGMIHPNSGVTKYNEKFKSKATLTVDKSSSTAYMQLSSLTSEDSAVYFCAGDGRFAYWGQGTLVTVSA
VL: DIQMTQSPSSLSASLGERVSLTCRASQDIGSSLNWLQQEPDGTIKRLIYATSSLDSGVPKRFSGSRSGSDYSLTISSLESEDFVDYYCLQYASSPWTFGGGTKLEIK
notes: Hybridoma clone; made as mouse/human chimeric IgG4
B2: 8A10C11 (2-7) (antibody, IgG4, V domains shown)
VH: QVQLQQPGAELVKPGASVKLSCKASGFTFTNYWMHWVKQRPGQGLEWIGMIHPNSGSTNYNEKFKSKATLTVDKSSSTAYMQLSSLTSEDSAVYYCAGGGRLDYWGQGTTLTVSS
VL: DIQMTQSPSSLSASLGERVSLTCRASQDIGSSLNWLQQEPDGTIKRLIYATSSLDSGVPKRFSGSRSGSDYSLTISSLESEDFVDYYCLQYASSPFTFGSGTKLEIK
notes: as for B1
B3: 8D5A6C1 (2-10) (antibody, IgG4, V domains shown)
VH: QVQLQQPGAELVKPGASVRLSCKAFGYTFTSYWMHWVKQRPGQGLEWIGMIHPNSGVTKYNEKFKSKATLTVDKSSSTAYMQLSSLTSEDSAVYFCAGDGRFAYWGQGTLVTVSA
VL: DIQMTQSPSSLSASLGERVSLTCRASQDIGNSLNWLQQEPDGTIKRLIYATSSLDSGVPKRFSGSRSGSDYSLTISSLESEDFVDYYCLQYASSPWTFGGGTKLEIK
notes: as for B1
B4: 45A10D5 (2-1) (antibody, IgG4, V domains shown)
VH: QVQLQQPGAELVKPGASVKLSCKASGYTFTSYWMHWVKQRPGQGLEWIGMIHPNSGSTNYNEKFKSKATLTVDKSSSTAYMQLSSLTSEDSAVYYCVYDGRFAYWGQGTLVTVSA
VL: DIQMTQSPSSLSASLGERVSLTCRASQDIGSSLNWLQQEPDGTIKRLIYATSSLDSGVPKRFSGSRSGSDYSLTISSLESEDFVDYYCLQYASSPFTFGSGTKLEIK
notes: as for B1
B5: u6506gj130-1-8 (1-8) (antibody, IgG4, V domains shown)
VH: QVQLQQPGAELVRPGTSVKLSCKASGYTFTSYWMHWVKQRPGQGLEWIGVIDPSDSYTNYNQKFKGKATLTVDTSSSTAYMQLSSLTSEDSAVYYCARSSSAYYSNYEAYWGQGTLVTVSA
VL: QIVLTQSPAIMSASPGEKVTISCSASSSVGYMFWYQQKPGSSPKPWIYRTSNLASGVPARFSGSGSGTSYSLTISSMEAEDAATYYCQQYHSYPPMWTFGGGTKLEIK
notes: Beacon screening clone; made as mouse/human chimeric IgG4
B6: u6506gj130-1-2 (1-2) (antibody, IgG4, V domains shown)
VH: EVQLQQSGPELVKPGASVKISCQASGYTFTDYYLNWVKQSHGKSLEWIGDIDPHNGGTSYNQKFKDKATLTVDKSSSTAYMELRSLTSEDSAVYYCARFPIYYSGSSPMDYWGQGTSVTVSS
VL: DIQMTQSPASLSASVGETVTITCRTNENIFSYLAWYQQKQGKSPQLLVYNAKTLAEGVPSRFSGSASGTQFSLKINTLQPEDFGSYYCQHHYGTPYTFGGGTKLEII
notes: Beacon screening clone; made as mouse/human chimeric IgG4 (mouse variable regions, human constant region)
B7: u6506gj130-1-10 (1-10) (antibody, IgG4, V domains shown)
VH: QVQLQQPGAELVKPGASVKLSCKASGYIFTSYWMHWVKQRPGQGLEWIGMIHPNSGSTNYNEKFKSKATLTVDKSSSTAYMQLSSLTSEDSAVYYCAREGNWARGYFEYWGQGTTLTVSS
VL: DIKMTQSPSSMYASLGERVTITCKASQDINSYLSWFQQKPGKSPKTLIYRANRLVDGVPSRFSGSGSGQDYSLTISSLEYEDVGMYYCLQYDEFPYTFGGGTKLEIK
notes: as for B5
B8: 21C9E9 (2-5) (antibody, IgG4, V domains shown)
VH: DVQLQESGPGLVKTSQSLSLTCSVTGYSITSDDYWNWIRQFPGNKLEWVGYISYDGSNNYNPSLKNRISITRDTSKNQFFLKLNSVTTEDTATYYCARLGYPAMDSWGQGTSVTVSS
VL: DIKMTQSPSSMYASLGERVTITCKASQDINSYLSWFQQKPGKSPKTLIYRANRLVDGVPSRFSGSGSGQDYSLTISSLEFEDLGIYYCLQYDEFPWTFGGGTKLEIK
notes: as for B1
B9: u6506gj130-1-4-vk2 (1-4-2) (antibody, IgG4, V domains shown)
VH: DVQLQQSVAELVRPGASVNLSCTASGFNIKNTYMHWVKQRPEQGLEWIGMIDPANGNTKYAPKFQGKATITADTSSNTAYLHLSSLTSEDTAIYYCARWAYDGYYESYFDYWGQGTTLTVSS
VL: SIVMTQSPKFLLVSAGDRVTITCKASQSVSNDVAWYQQKPGQSPKLLIYYASNRYTGVPDRFTGSGYGTDFTFTISTVQAEDLAVYFCHQDYSSPFTFGSGTKLEIK
notes: as for B5

Assays:
[1] = molecular target: T1, 6506GJ130-1A: Human NKP46 Recombinant Protein (His) (human, UniProt O76036 22-258, limits assumed); test: competition ELISA, NKp46-His coated; competitor 2-3 at 20 ug/ml
T1 construct: also called human NKp46 protein; not shown: His tag

[2] = molecular target: T1, 6506GJ130-1A: Human NKP46 Recombinant …; test: competition ELISA, NKp46-His coated; competitor 1-4-2 at 20 ug/ml
[3] = molecular target: T1, 6506GJ130-1A: Human NKP46 Recombinant …; test: competition ELISA, NKp46-His coated; competitor 1-10 at 20 ug/ml
[4] = molecular target: T1, 6506GJ130-1A: Human NKP46 Recombinant …; test: competition ELISA, NKp46-His coated; no competitor (Control)
[5] = molecular target: T1, 6506GJ130-1A: Human NKP46 Recombinant …; test: competition ELISA, NKp46-His coated; competitor 2-7 at 20 ug/ml
[6] = molecular target: T1, 6506GJ130-1A: Human NKP46 Recombinant …; test: competition ELISA, NKp46-His coated; competitor 2-1 at 20 ug/ml
[7] = molecular target: T1, 6506GJ130-1A: Human NKP46 Recombinant …; test: competition ELISA, NKp46-His coated; competitor 1-8 at 20 ug/ml
[8] = molecular target: T1, 6506GJ130-1A: Human NKP46 Recombinant …; test: competition ELISA, NKp46-His coated; competitor 2-10 at 20 ug/ml
[9] = molecular target: T1, 6506GJ130-1A: Human NKP46 Recombinant …; test: competition ELISA, NKp46-His coated; competitor 1-2 at 20 ug/ml
[10] = molecular target: T1, 6506GJ130-1A: Human NKP46 Recombinant …; test: competition ELISA, NKp46-His coated; competitor 2-5 at 20 ug/ml
[11] = molecular target: T1, 6506GJ130-1A: Human NKP46 Recombinant …; test: competition ELISA, NKp46-His coated; competitor 2-2 at 20 ug/ml
[12] = molecular target: T1, 6506GJ130-1A: Human NKP46 Recombinant …; test: SPR, Biacore 8K, antibody captured on Protein A chip, NKp46 as analyte

T1 sequence (O76036 22-258 limits assumed): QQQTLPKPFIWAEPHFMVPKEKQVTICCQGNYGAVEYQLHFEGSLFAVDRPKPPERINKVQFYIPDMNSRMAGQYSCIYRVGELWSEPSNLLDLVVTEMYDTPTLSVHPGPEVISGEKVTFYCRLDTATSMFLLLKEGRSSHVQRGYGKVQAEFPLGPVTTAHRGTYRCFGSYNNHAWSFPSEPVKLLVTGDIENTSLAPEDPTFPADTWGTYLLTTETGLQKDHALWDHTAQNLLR

Binder | ELISA signal [1] | ELISA signal [2] | ELISA signal [3] | ELISA signal [4] | ELISA signal [5] | ELISA signal [6] | ELISA signal [7] | ELISA signal [8] | ELISA signal [9] | ELISA signal [10] | ELISA signal [11] | Kd [12] | koff [12] | kon [12]
B1 | 0.092 | 0.931 | 0.159 | 1.34 | 0.098 | 0.241 | 1.37 | 0.096 | 1.05 | 1.2 | 0.093 | 1.03 nM | 0.000542 s⁻¹ | 527000 M⁻¹ s⁻¹
B2 | 0.146 | 0.637 | 0.133 | 1.41 | 0.093 | 0.204 | 1.4 | 0.106 | 1.1 | 1.24 | 0.088 | 2.78 nM | 0.00142 s⁻¹ | 511000 M⁻¹ s⁻¹
B3 | 0.091 | 0.724 | 0.176 | 1.27 | 0.123 | 0.245 | 1.3 | 0.083 | 0.998 | 1.13 | 0.154 | 1.29 nM | 0.000615 s⁻¹ | 476000 M⁻¹ s⁻¹
B4 | 0.093 | 0.658 | 0.087 | 1.63 | 0.077 | 0.097 | 1.6 | 0.1 | 1.12 | 1.32 | 0.087 | 30 nM | 0.0113 s⁻¹ | 376000 M⁻¹ s⁻¹
B5 | 1.35 | 1.18 | 1.45 | 1.45 | 1.39 | 1.4 | 0.111 | 1.34 | 1.61 | 0.197 | 1.43 | 11 nM | 0.00866 s⁻¹ | 790000 M⁻¹ s⁻¹
B6 | 1.28 | 0.178 | 1.19 | 1.54 | 1.15 | 1.24 | 1.63 | 1.24 | 0.1 | 1.46 | 1.23 | 4.29 nM | 0.00012 s⁻¹ | 27900 M⁻¹ s⁻¹
B7 | 0.092 | 0.895 | 0.095 | 1.6 | 0.08 | 0.121 | 1.71 | 0.097 | 1.04 | 1.44 | 0.086 | 9.34 nM | 0.00229 s⁻¹ | 246000 M⁻¹ s⁻¹
B8 | 1.27 | 0.612 | 1.4 | 1.31 | 1.33 | 1.28 | 1.29 | 1.3 | 1.3 | 0.201 | 1.28 | 4.96 nM | 0.000116 s⁻¹ | 23400 M⁻¹ s⁻¹
B9 | 0.785 | 0.082 | 0.662 | 1.44 | 0.686 | 0.764 | 1.24 | 0.691 | 0.1 | 0.852 | 0.829 | 18.3 nM | 0.0038 s⁻¹ | 207000 M⁻¹ s⁻¹
